Data as given in paper PMC11742315, “Identification of a staphylococcal dipeptidase involved in the production of human body odor” (The Journal of Biological Chemistry, 2024).

Key:
Assay in all cases: purified protein
[1] = system: CCCC(C)(CCO)SC[C@H](N)C(=O)NCC(=O)O; conditions: Mn2+-bound enzyme; 0.1 M Tris-HCl (pH 80 [sic]); coupled with ShPatB
N[C@@H](CS)C(=O)NCC(=O)O = conditions: Mn2+-bound enzyme, 50 mM potassium phosphate, 200 mM NaCl, 37 °C
purified protein = substrate: CCCC(C)(CCO)SC[C@H](N)C(=O)NCC(=O)O; conditions: 0.1 M Tris-HCl (pH 80 [sic]), coupled with ShPatB

Question: Which Km [1] does the source give for ShPepV (Staphylococcus hominis) here?
Answer: 1290 ± 40 µM

Question: And the kcat [1]?
Answer: 3.41 ± 0.07 s⁻¹

Question: And the kcat/Km [1]?
Answer: 2640 ± 100 M⁻¹ s⁻¹

Question: And the Km (N[C@@H](CS)C(=O)NCC(=O)O)?
Answer: 2190 ± 220 µM

Question: What about the kcat (N[C@@H](CS)C(=O)NCC(=O)O) of the same molecule?
Answer: 405 ± 23.6 s⁻¹

Question: And the kcat/Km (N[C@@H](CS)C(=O)NCC(=O)O)?
Answer: 186000 ± 21800 M⁻¹ s⁻¹

B1: SaPepV (Staphylococcus aureus subsp. aureus USA300) (protein)
chain: MWKEKVQQYEDQIINDLKGLLAIESVRDDAKASEDAPVGPGPRKALDYMYEIAHRDGFTTHDVDHIAGRIEAGKGNDVLGILCHVDVVPAGDGWDSNPFEPVVTEDAIIARGTLDDKGPTIAAYYAIKILEDMNVDWKKRIHMIIGTDEESDWKCTDRYFKTEEMPTLGFAPDAEFPCIHGEKGITTFDLVQNKLTEDQDEPDYELITFKSGERYNMVPDHAEARVLVKENMTDVIQDFEYFLEQNHLQGDSTVDSGILVLTVEGKAVHGMDPSIGVNAGLYLLKFLASLNLDNNAQAFVAFSNRYLFNSDFGEKMGMKFHTDVMGDVTTNIGVITYDNENAGLFGINLRYPEGFEFEKAMDRFANEIQQYGFEVKLGKVQPPHYVDKNDPFVQKLVTAYRNQTNDMTEPYTIGGGTYARNLDKGVAFGAMFSDSEDLMHQKNEYITKKQLFNATSIYLEAIYSLCVEE
Question: With B1 as the molecule, how does the Km (purified protein; Mn2+-bound enzyme) read?
Answer: 3340 ± 340 µM

B2: CgTpdA (Corynebacterium glaucum) (protein)
chain: MSNDNAVNSAVTSTDFTFSPNRERIFQELAELISHYSPHSMPEHAATHEEAAKWVTAKLEELGLDVTRHPTVDDADTIIGVKEPVGDAPTVLLYSHYDVVPAQNPAVWTNDPLELDERGGRWYGRGAADCKGNVIMHLAALRMVQENGGTDLGIKVVVEGSEELGGEDGLGKLIDANPELFTADVIFIGDGGNVAVGIPTLTTHLRGGAQLRIKVDTLEGPVHSGGWGGAAPDAAHALIRISDSFFDEHGRTTIEGVDTTAKWEGDPYDRETFRKDARVLDGVQLLGTVDDEPADMVWARPAITVIGFTSVPVKDATNIVNSTAEAQFNLRVPAPQSAAEVAKKVEEQIYARAPWGAKVEVSVTGVNEPFSTDPNGPAVQHFGKCMQDAYGAERLTVVGTGGSIPLTVTLQKHFPDAEFALYGVADPAANIHGIDESVDPTEIEHVAIAEATFLLTYGK
Question: Which Km (purified protein) does the source give for B2 here?
Answer: 480 ± 30 µM
